{"source": "patent US20030073218A1", "about": "“High affinity inhibitors for target validation and uses thereof” (Princeton University, priority 1999, published 2003)", "tested_on": "T1, Nc1ncnc2c1ncn2[C@@H]1O[C@H](COP(=O)(O)OP(=O)(O)OP(=O)(O)O)[C@@H](O)[C@H]1O", "T1 construct": "made in house; host or cells: Sf9 insect cells, baculovirus, co-infected with Cak1-HA3 (Cdc28-His6); bacteria (MBP-Clb2)", "experiment": "purified protein, by the assay type", "type": "biochemical, Saccharomyces cerevisiae", "conditions": "other: Cdc28 · MBP-Clb2; pH 7.4; 23.0 °C"}
{"substance": "Cdc28 · MBP-Clb2 (Saccharomyces cerevisiae S288C)", "values": [{"measurement": "Km", "result": 35, "unit": "µM"}, {"measurement": "kcat", "result": 2.2, "unit": "s⁻¹"}, {"measurement": "kcat/Km", "result": 62170, "unit": "M⁻¹ s⁻¹"}]}
